The values below come from paper PMC9529153.

In series [1] the target is Actinobacteria bacterium IMCC26103 heliorhodopsin (AbHeR) wild type (Actinobacteria bacterium IMCC26103). Kind of series: ITC; purified AbGS with AbHeR in inverted membrane vesicles (IMV) of E. coli C43 (DE3), no detergent; text: IMVs injected into AbGS, legend: AbGS added to IMVs; in the absence of light. (Isothermal titration calorimetry measures the heat released or taken up as one component is titrated into another.)

For series [2] the target is unchanged.
Series [3] has as its target AbHeR E151Q (Actinobacteria bacterium IMCC26103). Kind of series: ITC; AbGS injected into purified AbHeR (WT or mutant) at 25°C, MicroCal ITC200; both in buffer SD (150 mM NaCl, 50 mM Tris-HCl pH 7.0, 0.02% DDM); in the absence of light.
Series [4] concerns the target AbHeR D223N (Actinobacteria bacterium IMCC26103). The series is described as above.
Series [5] concerns the target Actinobacteria bacterium IMCC26103 heliorhodopsin (AbHeR) wild type (Actinobacteria bacterium IMCC26103). Described as above.
Series [6] concerns the target AbHeR K216Q (Actinobacteria bacterium IMCC26103). The description is as above.
For series [7], the target named is AbHeR K148Q (Actinobacteria bacterium IMCC26103). The series is described as above.
Series [8] has as its target Actinobacteria bacterium IMCC26103 heliorhodopsin (AbHeR) wild type (Actinobacteria bacterium IMCC26103). This is another data set of the same source.
Series [9] concerns the target AbHeR K216Q (Actinobacteria bacterium IMCC26103).
The next series has as its system Glu105. Kind of series: UV-vis. Conditions: Not stated for the titration. The purification buffer SD contains 150 mM NaCl., Not stated for the titration. The purified protein was in buffer SD: 150 mM NaCl, 50 mM Tris-HCl pH 7.0, 0.02% DDM. The protocol is referred to ref 8., detergent-solubilised, retinal-bound AbHeR WT. Light adaptation is not stated.

Actinobacteria bacterium IMCC26103 heliorhodopsin (AbHeR) wild type (Actinobacteria bacterium IMCC26103), sequence (main, as listed by the source): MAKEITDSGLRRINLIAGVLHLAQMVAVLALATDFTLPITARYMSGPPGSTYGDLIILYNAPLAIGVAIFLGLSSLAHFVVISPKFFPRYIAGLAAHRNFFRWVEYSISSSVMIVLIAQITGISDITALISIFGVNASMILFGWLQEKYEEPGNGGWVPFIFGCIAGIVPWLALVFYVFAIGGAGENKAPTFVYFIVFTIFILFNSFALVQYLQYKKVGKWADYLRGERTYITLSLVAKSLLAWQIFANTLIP

In the case of “Actinobacteria bacterium IMCC26103 glutamine synthetase (AbGS) (enzyme)”, the Kd (commonly the constant that tells how readily two partners part at equilibrium) in series [1] came to 6.06 µM; in series [3], 30 µM; in series [4], 44 µM; in [5] it was 100 µM; in series [6], 3680 µM; in [7], 137 µM. For the same substance, in series [2], the amount of product (Pi) of the AbGS biosynthetic reaction with AbHeR WT IMV at 150 min, in the absence of light, against AbHeR K216Q IMV is 1.09 times. In addition, in series [2], the amount of product (Pi) of the AbGS biosynthetic reaction with AbHeR WT IMV at 150 min, in the presence of light against the absence of light amounted to 1.1 times. The amount of product (Pi) of the AbGS biosynthetic reaction with AbHeR WT IMV at 150 min, in the presence of light, against AbHeR K216Q IMV in series [2] amounted to 1.2 times. Besides, the dH in series [3] came to 2.36 kcal/mol; in [4], 1.14 kcal/mol; in series [5] it was 2.07 kcal/mol; in series [7], 5.31 kcal/mol. Besides, the kcat/Km of AbGS (Glu, Mn2+-supported biosynthetic reaction, 37°C) with AbHeR WT IMV, dark; AbGS alone 5.42 in series [8] worked out at 8.01 M⁻¹ s⁻¹. Also, the kcat/Km of AbGS (Glu, Mn2+-supported biosynthetic reaction, 37°C) with AbHeR WT IMV, light (532 nm); AbGS alone 5.42 in series [8] came to 12.2 M⁻¹ s⁻¹. Besides, the kcat/Km of AbGS (Glu, Mn2+-supported biosynthetic reaction, 37°C) with AbHeR K216Q IMV, dark; AbGS alone 5.42 in [9] was determined as 5.45 M⁻¹ s⁻¹. Further, in series [9], the kcat/Km of AbGS (Glu, Mn2+-supported biosynthetic reaction, 37°C) with AbHeR K216Q IMV, light (532 nm); AbGS alone 5.42 is 6.91 M⁻¹ s⁻¹.
On to “Heliorhodopsin AbHeR (Actinobacteria bacterium IMCC26103)”, for which the pKa (commonly the negative logarithm of the acid dissociation constant) in the series on Glu105 is recorded as 2.84 (± 1.07).
